From patent publication US20250320293A1 (REGENECORE BIOTECH, published 2025)
Where a chain is given by its changes, count along the chain named. Where two headings read alike, the source gives them in different places. Values belong to the binder of their own block, whether it stands above or below them.

Assays:
[1] = target: T1, recombinant human TREM2 protein (amino acids 19 to 174) (human, UniProt Q9NZC2 19-174); assay: ELISA
T1 chain: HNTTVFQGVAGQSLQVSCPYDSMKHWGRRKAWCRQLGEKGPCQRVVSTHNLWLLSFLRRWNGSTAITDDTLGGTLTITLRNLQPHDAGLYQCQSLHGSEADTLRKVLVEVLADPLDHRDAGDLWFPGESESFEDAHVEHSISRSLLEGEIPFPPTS

[2] = target: T2, recombinant human TREM2 protein (amino acids 19 to 174) (human, UniProt Q9NZC2 19-174); assay: ELISA, VHH-hFc titrated on coated TREM2 (1 ug/mL), HRP-goat anti-hIgG
T2 construct: range 19-174
T2 sequence (looked up): T1 chain

[3] = target: T2, recombinant human TREM2 protein (amino …); assay: ELISA, crude VHH extract on coated TREM2, anti-HA-HRP; positive if OD450 more than five times the control
Description: Crude antibodies were obtained by osmotic bursting. The TREM2 recombinant proteins were diluted in 100 mM NaHCO₃ of pH 8.3, respectively. An ELISA plate was then coated with 100 μg of the proteins and left at 4° C. overnight. 100 μL of the obtained crude antibody extract was transferred to the ELISA plate into which the antigen was added. The plate was incubated at room temperature for 1 h. The unbound antibody was washed away with phosphate buffered saline with Tween (PBST), and 100 μL of Mouse Anti-HA tag Antibody (HRP) (mouse anti-HA horseradish peroxidase-labeled antibody, Thermo Fisher) at 1:2000 dilution was added and incubated at room temperature for 1 h. The unbound antibody was washed away with PBST, and a horseradish peroxidase color development solution was added. After react at 37° C. for 15 min, a stopping solution was added. The absorbance value was read at the wavelength of 450 nm on a microplate reader.
When an optical density (OD) value of a sample well is more than five times greater than that of the control well, the sample well is identified as a positive clone well. The bacteria in the positive clone well were transferred to an LB medium containing 100 μg/mL ampicillin under shaking for plasmid extraction and sequencing.

[4] = target: T1, recombinant human TREM2 protein (amino …); assay: ELISA
[5] = target: T1, recombinant human TREM2 protein (amino …); assay: ELISA
[6] = target: T1, recombinant human TREM2 protein (amino …); assay: ELISA

B1: Fc fusion antibody of single-domain antibody 12G10 (Fc fusion)
chain: ESGGGLVQPGGSLRLSCAASGFAFSNYVMHWYRQAPEKERELVAIIGSQGGAYTNYAASVKGRFTISRDNAKNMVYLQMNNLKPEDTAVYYCNVVYIGRPNWGQGTQVTVSS
notes: also called VHH-hFc; not shown: human IgG1 (vector RJK-V4-hFC1) or IgG4 (vector RJK-V4-3) hinge, CH2, CH3 with 6xHis tag; which of the two is told only
- EC50 [1]: 0.3 nM
- binding result [2]: binds

B2: single-domain antibody 12G10 (VHH)
VHH: B1 chain
notes: Crude extract from E. coli (pMECS vector), detected through an HA tag
- binding result [3]: binds

B6: Fc fusion antibody of single-domain antibody 10F10 (Fc fusion)
chain: B1 chain with S25G, A52T, A58D
notes: as for B1
- EC50 [5]: 0.265 nM
- binding result [2]: binds

B9: Fc fusion antibody of single-domain antibody 10E12 (Fc fusion)
chain: ESGGGLVQPGGSLRLSCAASGFTFSGYYMSWVRQVPGKARELVAGITRGGNTYYADSVKGRFTISRDNAKNTVYLQMNNLKPEDTTVYYCNARRATTYYWGQGTQVTVSS
notes: as for B1
- EC50 [5]: 0.293 nM
- binding result [2]: binds

B10: single-domain antibody 10E12 (VHH)
VHH: B9 chain
notes: as for B2
- binding result [3]: binds

B11: 11H2-hFC4 (Fc fusion antibody of single-domain antibody 11H2) (Fc fusion)
chain (part 1 of 2): B9 chain with F22L, G26E
- EC50 [1]: 0.33 nM

B14: single-domain antibody 12G12W (VHH)
VHH: ESGGGLVQAGESLRLSCAASGRTFTNYAMGWFRQAPGKEREFVAGVSWSGSSTDYADSVKGRFTISTDNAKNTVYLQMTSLKPEDTAVYICGVKYFGHSRGGYDYWGQGTQVTVSS
notes: as for B2
- binding result [3]: binds

B15: single-domain antibody 11D3 (VHH)
VHH: B14 VHH with N26D
notes: as for B2
- binding result [3]: binds

B16: Fc fusion antibody of single-domain antibody 10B3 (Fc fusion)
chain: B14 VHH with M78I, T79N, S80N
notes: as for B1
- EC50 [5]: 0.242 nM
- binding result [2]: binds

Other lines, results leading:

- binding result [3]: binds
B3: single-domain antibody 2B5 (VHH)
VHH: B1 chain with I45L, A58G, A71T, I97N
notes: as for B2

- EC50 [4]: 0.201 nM
- binding result [2]: binds
B4: Fc fusion antibody of single-domain antibody 2B5 (Fc fusion)
chain: B1 chain with I45L, A58G, A71T, I97N
notes: as for B1

- binding result [3]: binds
B5: single-domain antibody 10F10 (VHH)
VHH: B1 chain with S25G, A52T, A58D
notes: as for B2

- EC50 [4]: 0.38 nM
- binding result [2]: binds
B7: Fc fusion antibody of single-domain antibody 1H1 (Fc fusion)
chain: ESGGGLVQPGGSLRLSCAASGRTFSSYVMGWFRQAPGKEREFVAAISWSGGITYYGDSVKGRFTISRDNAKNTVFLQMNSLKPEDTAVYYCASGSGSYYRGWEYDYWGQGTQVTVSS
notes: as for B1

- binding result [3]: binds
B8: single-domain antibody 1H1 (VHH)
VHH: B7 chain
notes: as for B2

- binding result [3]: binds
B12: single-domain antibody 11H2 (VHH)
VHH: B9 chain with F22L, G26E
notes: as for B2

- EC50 [6]: 0.254 nM
B13: 12G12W-hFC1 (Fc fusion antibody of single-domain antibody 12G12W) (Fc fusion)
chain (part 1 of 2): B14 VHH

- EC50 [1]: 0.337 nM
- binding result [2]: binds
B17: Fc fusion antibody of single-domain antibody 11D3 (Fc fusion)
chain: B14 VHH with N26D
notes: as for B1

- binding result [3]: binds
B18: single-domain antibody 10B3 (VHH)
VHH: B14 VHH with M78I, T79N, S80N
notes: as for B2
